The values that follow come from US20240360242A1 (KISOJI BIOTECHNOLOGY, published 2024).

The target in experiment [1] is T1, recombinant human TROP2 extracellular domain (aa 1-274) comprising His tag (human, UniProt P09758 27-274).
T1 construct: Used here for all assays on recombinant human TROP2 (ELISA, immunoblot, SPR, crystal), although only some of them name the catalogue number; also called human recombinant TROP2; recombinant human TROP2 protein; not shown: His tag
T1 sequence: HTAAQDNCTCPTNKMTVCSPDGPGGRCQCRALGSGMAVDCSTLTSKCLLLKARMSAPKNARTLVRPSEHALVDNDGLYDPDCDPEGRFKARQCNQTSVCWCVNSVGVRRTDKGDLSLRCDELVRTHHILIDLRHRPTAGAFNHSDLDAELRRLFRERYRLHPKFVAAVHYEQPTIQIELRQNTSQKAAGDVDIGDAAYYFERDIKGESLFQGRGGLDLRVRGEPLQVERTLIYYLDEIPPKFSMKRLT
Briefly: ELISA, coated rh TROP2. As for the experimental part: (§1) Human TROP2 recombinant proteins were coated on 96-well ELISA plates at the concentration of 1 μg/mL. Plates were covered with adhesive plate cover and stored at 4° C. overnight. The next day, plates were washed 3× with washing buffer (PBS with 0.1% Tween™ 20). Plates were blocked with 2% fat-free BSA in washing buffer for 1 hour at 37° C. During the incubation time, the TROP2 reference antibodies, as well as the humanized variants, were diluted in the blocking buffer to the indicated concentrations. […] After blocking, the blocking buffer was removed from the wells and 100 μL of anti-TROP2 sdAbs dilutions were transferred to the corresponding wells. Plates were covered with adhesive plates cover and incubated at 37° C. for 1 hour. During the primary antibody incubation, the secondary antibody (goat anti-human IgG, HRP conjugated) was diluted 1 in 5000 with the blocking buffer. Plates were washed 3× with blocking buffer, followed by secondary antibody incubation for another 1 hour at 37° C. After the secondary antibody incubation, plates were washed 3× with washing buffer and added with 100 μL of ELISA chemiluminescent substrate (Thermofisher). The luminescence signal was detected by SpectraMax i3x at […].
On the technique in general: ELISA stands for enzyme-linked immunosorbent assay.

Experiment [2] deals with T1, recombinant human TROP2 extracellular …. The experiment can be described thus: ELISA, coated rh TROP2, normalized to KD005.
The target is the same in experiment [3]. Briefly: ELISA on coated recombinant human TROP2, 0.00256-200 nM, RLU. As for the experimental part: as §1
The next experiment addresses T2, HEK-TROP2 Δ27-44.
T2 construct: also called TROP2 delta 27-44
T2 membrane protein on transfected HEK cells: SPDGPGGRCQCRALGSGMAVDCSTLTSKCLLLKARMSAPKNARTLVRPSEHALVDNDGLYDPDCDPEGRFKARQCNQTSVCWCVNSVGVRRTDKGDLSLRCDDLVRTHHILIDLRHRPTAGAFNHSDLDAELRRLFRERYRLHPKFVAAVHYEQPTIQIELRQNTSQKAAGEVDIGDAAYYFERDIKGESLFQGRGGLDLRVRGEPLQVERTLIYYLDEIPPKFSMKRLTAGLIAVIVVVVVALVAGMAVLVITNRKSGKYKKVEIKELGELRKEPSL
Briefly: flow cytometry, 100 nM antibody, transiently transfected HEK cells, APC anti-human Fc. As for the experimental part:
(§2) To determine the effect of TROP2 truncations on the binding ability of anti-TROP2 sdAbs, the HEK parental cells were transiently transfected with human TROP2 mutants by lipofectamine. 24 hours after transfection, cells were collected and stained with anti-TROP2 antibodies (FIG. 13A and FIG. 13B). In brief, 1×10⁵ cells were incubated with an Fc receptor blocking antibody (1/100 dilution) for 10 minutes at room temperature. Anti-TROP2 antibodies were diluted in FACS staining buffer to 100 nM and added and incubated with cells for 30 minutes on ice. After washing three times with FACS staining buffer, APC-conjugated secondary antibodies recognizing the human Fc region (Biolegend, Cat #410712) were mixed with cells. After staining for 30 minutes, cells were washed three times, followed by resuspension into 100 μL of 7-Amino-Actinomycin D (7-AAD) solution (BD Biosciences, Cat #559925).

In another experiment the target is T3, HEK-TROP2 Δ27-36.
T3 construct: also called TROP2 delta 27-36
T3 membrane protein on transfected HEK cells: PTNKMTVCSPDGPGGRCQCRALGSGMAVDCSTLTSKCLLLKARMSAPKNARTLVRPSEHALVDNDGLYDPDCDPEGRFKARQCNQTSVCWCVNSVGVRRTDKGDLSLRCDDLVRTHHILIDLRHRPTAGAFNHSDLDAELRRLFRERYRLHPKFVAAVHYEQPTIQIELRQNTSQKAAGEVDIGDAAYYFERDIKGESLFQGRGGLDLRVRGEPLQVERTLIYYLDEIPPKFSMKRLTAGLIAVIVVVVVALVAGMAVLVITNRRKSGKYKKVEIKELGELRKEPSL
The description is as above. The protocol:
as §2

The target in experiment [4] is T4, TROP2 delta 27-56 on HEK cells (human, UniProt P09758 1-323).
T4 construct: Human TROP2 with residues 27-56 deleted, transiently transfected into HEK cells; also called TROP2 with 27-56 regions truncated
T4 chain: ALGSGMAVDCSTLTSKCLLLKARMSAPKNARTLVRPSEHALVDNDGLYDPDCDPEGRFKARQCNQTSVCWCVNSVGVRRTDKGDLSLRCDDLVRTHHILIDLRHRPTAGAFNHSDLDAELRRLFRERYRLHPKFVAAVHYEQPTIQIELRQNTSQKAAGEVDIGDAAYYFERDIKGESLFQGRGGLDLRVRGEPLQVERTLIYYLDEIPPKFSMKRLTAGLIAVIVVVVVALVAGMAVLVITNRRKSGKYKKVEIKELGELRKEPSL
The description is as above. The protocol: as §2

In experiment [5] the target is T1, recombinant human TROP2 extracellular …. The experiment can be described thus: competitive ELISA on coated recombinant human TROP2, competitor 1428.6 pM His-tagged KD006, anti-His-HRP secondary Ab. As for the experimental part: The epitope characterization was assessed by competitive ELISA (FIG. 8 and FIG. 9). Microplates were coated with human recombinant TROP2 at 4° C. overnight. After washing, plates were blocked with blocking buffer (PBS+2% BSA), for 1 hour at room temperature. Meanwhile, the dilution for anti-TROP2 VHH sdAbs was prepared with blocking buffer making two different dilutions depending on the tag. For sdAbs with His tag, the antibody was diluted to 28571.4 pM. For sdAbs without tag, antibodies were serially diluted from 2857142.9 pM to 0.29 pM (8 dilutions, 10×). […] After washing two times, the mixed antibody contents were added into the wells and the plates were incubated for 2 hours at room temperature. The HRP-conjugated anti-6× His was diluted to 1:5000 and added to the wells after washing three times. Any unbound conjugate was removed by washing after 1 hour incubation at room temperature, and the colorimetric reaction was performed by adding the same volume of Supersignal ELISA Pico Luminol/Enhancer and SuperSignal ELISA Pico Stable Peroxide Solution and detected on SpectraMax i3x Microplate Reader. Positive and negative controls were included in each plate.

Experiment [6] addresses T5, recombinant human IGFBP-1 (human, UniProt P08833 26-259).
T5 construct: also called rhIGFB-1
T5 sequence (looked up): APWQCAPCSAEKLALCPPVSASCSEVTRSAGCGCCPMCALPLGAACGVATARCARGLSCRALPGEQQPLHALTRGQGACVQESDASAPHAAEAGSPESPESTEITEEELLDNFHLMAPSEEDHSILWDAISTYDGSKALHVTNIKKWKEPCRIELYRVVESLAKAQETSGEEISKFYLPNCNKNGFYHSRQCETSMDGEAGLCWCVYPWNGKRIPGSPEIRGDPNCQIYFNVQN
Briefly: ELISA.

The target in another experiment is T6, recombinant human EpCAM (human, UniProt P16422 24-265).
T6 construct: also called rhEpCAM
T6 sequence (looked up): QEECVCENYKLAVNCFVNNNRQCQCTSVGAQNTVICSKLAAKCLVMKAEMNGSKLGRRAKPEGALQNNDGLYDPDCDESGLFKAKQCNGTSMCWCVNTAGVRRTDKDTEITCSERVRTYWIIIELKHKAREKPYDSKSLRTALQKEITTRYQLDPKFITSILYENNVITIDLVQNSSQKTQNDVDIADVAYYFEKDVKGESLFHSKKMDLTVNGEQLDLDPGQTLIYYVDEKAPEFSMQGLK
The experiment can be described thus: ELISA.

B1: KD052 (antibody, V domains shown)
VH: EVQLVESGGGLIQPGGSLRLSCAASGFTFSGSDMSWVRQAPGKGLEWVSVITSGGTTYYADTVKGRFTISRDNSKNTLYLQMNSLRAEDTAVYYCAKSRLTDSHYVEDAWGQGTLVTVSS
notes: KD005 humanized variant
As a reminder, the EC50 is the concentration giving half of the maximal effect. On to B1, for which, in experiment [1], the EC50 was found to be 0.07 nM and the “EC50% to KD005” value is 0.875 ratio to KD005. For the same molecule, the “EC50 relative to KD005” value in [2] is 0.93 ratio to KD005.

B2: KD057 (antibody, V domains shown)
VH: QVQLQESGGGLIQPGGSLRLSCAASGFTFSGSDMSWVRQAPGKGLEWVSVITSGGTTYYADTVKGRFTISRDNSKNTLYLQMNSLRAEDTAVYRCAKSRLTDSHYVEDAWGQGTLVTVSS
notes: KD005 humanized variant
On to B2, for which, in experiment [1], the EC50 was 0.09 nM and the “EC50% to KD005” value was 1.12 ratio to KD005. Also, the “EC50 relative to KD005” value in experiment [2] was 1.15 ratio to KD005.

B3: KD055 (antibody, V domains shown)
VH: EVQLQESGGGLIQPGGSLRLSCAASGFTFSGSDMSWVRQAPGKGLEWVSYITSGGTTYYADTVKGRFTISRDNSKNTLYLQMNSLRAEDTAVYRCAKSRLTDSHYVEDAWGQGTLVTVSS
notes: KD005 humanized variant
B3: in experiment [1], the EC50 was 0.08 nM and the “EC50% to KD005” value is 1 ratio to KD005. Also, the “EC50 relative to KD005” value in [2] was 1.12 ratio to KD005.

B4: KD056 (antibody, V domains shown)
VH: QVQLVESGGGLIQPGGSLRLSCAASGFTFSGSDMSWVRQAPGKGLEWVSYITSGGTTYYADTVKGRFTISRDNSKNTLYLQMNSLRAEDTAVYRCAKSRLTDSHYVEDAWGQGTLVTVSS
notes: KD005 humanized variant
In the case of B4, in [1], the EC50 came out at 0.09 nM and the “EC50% to KD005” value is 1.12 ratio to KD005. Besides, the “EC50 relative to KD005” value in experiment [2] is 1.21 ratio to KD005.

B5: KD020 (antibody, V domains shown)
VH: EVQLVESGGGLVQPGGSLRLSCAASGFPFSSADMHWVRQAPGKGLVWVSRINADGSKTSYADTVKGRFTISRDNAKNTLYLQMNSLRAEDTAVYYCARAKLTDTHYVEDYWGQGTLVTVSS
notes: KD002 humanized variant
Take B5: the binding result in [3] is recorded as “binds”.

B6: KD006 (antibody, human IgG1, V domains shown)
VH: QVQLQESGGGLVQAGNSLRLSCVASVRTFSTKAMGWFRQAPGKEREFTAAISESGSTYYADSVKDRFTISRDNVKNTVYLQMNSLKPEDTAVYYCGVKWYSGSFDDTRSYDYWGQGTQVTVSS
notes: also called anti-TROP2 sdAb KD006
In the case of B6, the binding result in the experiment with HEK-TROP2 Δ27-44 is listed as “binds”; with HEK-TROP2 Δ27-36, “binds”; in experiment [4], “binds”; in [6] it was “no binding”; in the experiment with recombinant human EpCAM, “no binding”. In addition, the “IC50 (read off the curve)” value in experiment [5] was roughly 4 nM.
